{"source": "the Human Domainome abundance scans (Beltran et al. 2025)", "parents": {"B1": {"name": "Zinc finger MYM-type protein 6, residues 427 to 504; numbered along this chain, O95789 (parent)", "chain": "KLKCQHCNHLFATKPELLFYKGKMFLFCGKNCSDEYKKKNKVVAMCDYCKLQKIIKETVRFSGVDKPFCSEVCKFLSA"}}, "note": "± gives the uncertainty stated by the source."}
{"variants_of": "B1", "test": "abundance fitness (aPCA) (normalised: wild type 0, dead -1); higher = more abundant; growth selection in yeast, the domain comes from the species named", "settings": "Homo sapiens"}
{"variant": "KLKCQHCNHLFATKPELLFYKGKMFLFCGKNCSDEYKKKNKVVAMCDYCKLQKIIKVTVRFSGVDKPFCSEVCKFLSA", "note": "[E57V]", "abundance fitness": "-0.059 ± 0.1"}
{"variant": "KLKCQHCNHLFATKPELLFYKGKMFLFCGKNCSDEYKKKNKVVAMCDYEKLQKIIKETVRFSGVDKPFCSEVCKFLSA", "note": "[C49E]", "abundance fitness": "-0.64 ± 0.18"}
{"variant": "KLKCQHCNHLFATKPELLFYKGKMFLFCGKNCSDEYKKKNKVVAMCDYCKLQKIIKETVRFSGVDKPFCSEVDKFLSA", "note": "[C73D]", "abundance fitness": "-0.505 ± 0.37"}
{"variant": "KLKCQHCNHLFATKPELLFYKGKMFLFCGKNCSDEYKKKNKVVAMCDYCKLQKIIKETVRFSGVDKPFCSEVCKFLLA", "note": "[S77L]", "abundance fitness": "-1.36 ± 0.4"}
{"variant": "KLKCQHCNHGFATKPELLFYKGKMFLFCGKNCSDEYKKKNKVVAMCDYCKLQKIIKETVRFSGVDKPFCSEVCKFLSA", "note": "[L10G]", "abundance fitness": "0.049 ± 0.028"}
{"variant": "KLKCQHCNHYFATKPELLFYKGKMFLFCGKNCSDEYKKKNKVVAMCDYCKLQKIIKETVRFSGVDKPFCSEVCKFLSA", "note": "[L10Y]", "abundance fitness": "-0.026 ± 0.053"}
{"variant": "KLKCQHCNHSFATKPELLFYKGKMFLFCGKNCSDEYKKKNKVVAMCDYCKLQKIIKETVRFSGVDKPFCSEVCKFLSA", "note": "[L10S]", "abundance fitness": "-0.066 ± 0.046"}
{"variant": "KLKCQHCNHCFATKPELLFYKGKMFLFCGKNCSDEYKKKNKVVAMCDYCKLQKIIKETVRFSGVDKPFCSEVCKFLSA", "note": "[L10C]", "abundance fitness": "-0.05 ± 0.09"}
{"variant": "KLKCQHCNHRFATKPELLFYKGKMFLFCGKNCSDEYKKKNKVVAMCDYCKLQKIIKETVRFSGVDKPFCSEVCKFLSA", "note": "[L10R]", "abundance fitness": "0.063 ± 0.029"}
{"variant": "KLKCQHCNHLFATKPELLFYEGKMFLFCGKNCSDEYKKKNKVVAMCDYCKLQKIIKETVRFSGVDKPFCSEVCKFLSA", "note": "[K21E]", "abundance fitness": "0.008 ± 0.036"}
{"variant": "KLKCQHCNHLFATKPELLFYLGKMFLFCGKNCSDEYKKKNKVVAMCDYCKLQKIIKETVRFSGVDKPFCSEVCKFLSA", "note": "[K21L]", "abundance fitness": "-0.007 ± 0.032"}
{"variant": "KLKCQHCEHLFATKPELLFYKGKMFLFCGKNCSDEYKKKNKVVAMCDYCKLQKIIKETVRFSGVDKPFCSEVCKFLSA", "note": "[N8E]", "abundance fitness": "0.018 ± 0.038"}
{"variant": "KLKCQHCNHLFATKPELLFYKGKMFLFCGKNCSDEYKKKNKVVAMCDCCKLQKIIKETVRFSGVDKPFCSEVCKFLSA", "note": "[Y48C]", "abundance fitness": "0.426 ± 0.21"}
{"variant": "KLKCQHCNHLFATKPELLFYKGKMFLFCGKNCSDEYKKKNKVVAMCDRCKLQKIIKETVRFSGVDKPFCSEVCKFLSA", "note": "[Y48R]", "abundance fitness": "-0.043 ± 0.076"}
{"variant": "KLKCQHCNHLFATKPELLFYKGKMFLFCGKNCSDEYKKKNKVVAMCDYCKLQKIIKETVRFSGVDKPFCWEVCKFLSA", "note": "[S70W]", "abundance fitness": "-1.14 ± 0.27"}
{"variant": "KLKCQHCNHLFATKPELLFYKGKMFLFCGKNCSDEYKKKNKVVAMCDYCKLQKIIKETVRFSGVDKPFCQEVCKFLSA", "note": "[S70Q]", "abundance fitness": "-0.578 ± 0.17"}
{"variant": "KLKCQHCNHLFATKPELLFYKGKMFLFCGKNCGDEYKKKNKVVAMCDYCKLQKIIKETVRFSGVDKPFCSEVCKFLSA", "note": "[S33G]", "abundance fitness": "-0.141 ± 0.027"}
{"variant": "KLKCQHCNHLFATKPELLFYKGKMFLFCGKNCFDEYKKKNKVVAMCDYCKLQKIIKETVRFSGVDKPFCSEVCKFLSA", "note": "[S33F]", "abundance fitness": "-0.289 ± 0.12"}
{"variant": "KLKCQHCNHLFATKPELLFYKGKMFLFCGKNCPDEYKKKNKVVAMCDYCKLQKIIKETVRFSGVDKPFCSEVCKFLSA", "note": "[S33P]", "abundance fitness": "-0.343 ± 0.045"}
{"variant": "KLKCQHCNHLFATKPELLFYKGKMFLFCGKNCRDEYKKKNKVVAMCDYCKLQKIIKETVRFSGVDKPFCSEVCKFLSA", "note": "[S33R]", "abundance fitness": "-0.061 ± 0.03"}
{"variant": "KLKCQHCNHLFATKPELLFYKGKMFLFCGKNCSDEYKKKNKVVAWCDYCKLQKIIKETVRFSGVDKPFCSEVCKFLSA", "note": "[M45W]", "abundance fitness": "-0.842 ± 0.25"}
{"variant": "KLKCQHCNHLFATKPELLFYKGKMFLFHGKNCSDEYKKKNKVVAMCDYCKLQKIIKETVRFSGVDKPFCSEVCKFLSA", "note": "[C28H]", "abundance fitness": "-0.608 ± 0.12"}
{"variant": "KLKCQHCNHLFATKPELLFYKGKMFLFGGKNCSDEYKKKNKVVAMCDYCKLQKIIKETVRFSGVDKPFCSEVCKFLSA", "note": "[C28G]", "abundance fitness": "-0.866 ± 0.04"}
{"variant": "KLKCQHCNHLFATKPELLFYKGKMFLFCGKNCSDEYKKKNKVVAMCDYCKLQKIIKETVRFSGVDKRFCSEVCKFLSA", "note": "[P67R]", "abundance fitness": "0.042 ± 0.081"}
{"variant": "KLKCQHCNHLFAAKPELLFYKGKMFLFCGKNCSDEYKKKNKVVAMCDYCKLQKIIKETVRFSGVDKPFCSEVCKFLSA", "note": "[T13A]", "abundance fitness": "-0.074 ± 0.034"}
{"variant": "KRKCQHCNHLFATKPELLFYKGKMFLFCGKNCSDEYKKKNKVVAMCDYCKLQKIIKETVRFSGVDKPFCSEVCKFLSA", "note": "[L2R]", "abundance fitness": "0.014 ± 0.028"}
{"variant": "KLKCQHCNHLFATKPELLFYKGKMFLFCGKNCSDEYKKKNKVVAMCDYCKAQKIIKETVRFSGVDKPFCSEVCKFLSA", "note": "[L51A]", "abundance fitness": "0.187 ± 0.077"}
{"variant": "KLKCQHCNHLFATKPELLFYKGKMFLFCGKNCSDEYKKKNKVVAMCDYCKRQKIIKETVRFSGVDKPFCSEVCKFLSA", "note": "[L51R]", "abundance fitness": "0.509 ± 0.064"}
{"variant": "KLKCQHCNHLFATKPELLFYKGKMFLFCGKNCSDEYKKVNKVVAMCDYCKLQKIIKETVRFSGVDKPFCSEVCKFLSA", "note": "[K39V]", "abundance fitness": "-0.023 ± 0.044"}
{"variant": "KLKCQHCNHLFATKPELLFYKGKMFLFCGKNCSDEYKKHNKVVAMCDYCKLQKIIKETVRFSGVDKPFCSEVCKFLSA", "note": "[K39H]", "abundance fitness": "-0.078 ± 0.095"}
{"variant": "KLKCQHCNKLFATKPELLFYKGKMFLFCGKNCSDEYKKKNKVVAMCDYCKLQKIIKETVRFSGVDKPFCSEVCKFLSA", "note": "[H9K]", "abundance fitness": "0.034 ± 0.053"}
{"variant": "KLKCQHCNHLFATKPELLFYKGKMFLFCGKNCSDEYKKKNKVVAMCDYCWLQKIIKETVRFSGVDKPFCSEVCKFLSA", "note": "[K50W]", "abundance fitness": "-0.709 ± 0.13"}
{"variant": "KLKCQHCNHLFATKPELLFYKGKMFLFCGKNCSDEYKKKNKVVAMCDYCKLQKIIKETVRFSGVDKPFCSLVCKFLSA", "note": "[E71L]", "abundance fitness": "-0.962 ± 0.19"}
{"variant": "KLKCQHCNHLFATKPELLFYKGKMFLFCGKNCSDEYKKKNKVVAMCDYCKLQKIIKETVRFSGVDKPFCSSVCKFLSA", "note": "[E71S]", "abundance fitness": "-0.239 ± 0.14"}
{"variant": "KLKCQHCNHLFATKPELLFYKGKMFLFCGKNCSDEYQKKNKVVAMCDYCKLQKIIKETVRFSGVDKPFCSEVCKFLSA", "note": "[K37Q]", "abundance fitness": "0.051 ± 0.084"}
